{
  "source": "patent US20250313627A1",
  "about": "(FUSE BIOTHERAPEUTICS, published 2025)",
  "key": {"[1]": {"molecular_target": "T1, human ROR1 (Receptor Tyrosine Kinase-Like Orphan Receptor 1) on the cell surface (human, UniProt Q01973 30-937)", "T1 sequence (Q01973 30-937)": "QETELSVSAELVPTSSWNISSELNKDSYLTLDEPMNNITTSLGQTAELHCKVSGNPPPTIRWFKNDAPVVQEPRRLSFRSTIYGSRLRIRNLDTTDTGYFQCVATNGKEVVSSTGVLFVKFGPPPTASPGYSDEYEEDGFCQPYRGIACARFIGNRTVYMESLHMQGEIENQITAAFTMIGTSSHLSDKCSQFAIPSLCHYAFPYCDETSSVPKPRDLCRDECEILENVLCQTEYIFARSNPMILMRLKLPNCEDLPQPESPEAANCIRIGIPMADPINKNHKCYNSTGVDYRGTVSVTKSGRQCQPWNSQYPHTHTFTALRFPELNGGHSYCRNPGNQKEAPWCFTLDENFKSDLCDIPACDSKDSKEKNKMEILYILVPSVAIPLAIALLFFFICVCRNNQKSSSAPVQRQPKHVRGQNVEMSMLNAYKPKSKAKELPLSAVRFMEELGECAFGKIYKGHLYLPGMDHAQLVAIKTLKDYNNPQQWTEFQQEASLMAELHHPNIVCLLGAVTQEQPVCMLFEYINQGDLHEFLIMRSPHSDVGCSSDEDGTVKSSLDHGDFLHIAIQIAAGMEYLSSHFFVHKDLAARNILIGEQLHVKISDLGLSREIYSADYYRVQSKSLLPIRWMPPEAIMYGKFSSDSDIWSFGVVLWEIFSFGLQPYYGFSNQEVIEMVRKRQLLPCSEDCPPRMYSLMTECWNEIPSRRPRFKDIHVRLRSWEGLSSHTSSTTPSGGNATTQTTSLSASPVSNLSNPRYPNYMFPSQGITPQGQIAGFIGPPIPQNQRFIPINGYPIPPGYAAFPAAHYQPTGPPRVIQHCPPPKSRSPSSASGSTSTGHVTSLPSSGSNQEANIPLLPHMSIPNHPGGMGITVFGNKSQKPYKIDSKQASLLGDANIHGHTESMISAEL", "test": "cell-based or functional assay"}, "human CD3 on T cells": {"molecular_target": "T2, human CD3 on T cells (human, UniProt P07766 23-207; P09693 23-182; P04234 22-171; P20963 22-164)", "T2 construct": "whole, on cells; also called human CD3 on Jurkat T cells; human CD3 on T cells isolated from human PBMC", "T2 sequence (P07766 23-207, chain 1 of 4)": "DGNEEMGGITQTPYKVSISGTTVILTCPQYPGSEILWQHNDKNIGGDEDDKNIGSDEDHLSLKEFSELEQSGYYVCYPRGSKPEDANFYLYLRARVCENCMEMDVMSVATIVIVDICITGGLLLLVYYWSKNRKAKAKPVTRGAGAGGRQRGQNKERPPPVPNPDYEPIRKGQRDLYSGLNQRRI", "T2 sequence (P09693 23-182, chain 2 of 4)": "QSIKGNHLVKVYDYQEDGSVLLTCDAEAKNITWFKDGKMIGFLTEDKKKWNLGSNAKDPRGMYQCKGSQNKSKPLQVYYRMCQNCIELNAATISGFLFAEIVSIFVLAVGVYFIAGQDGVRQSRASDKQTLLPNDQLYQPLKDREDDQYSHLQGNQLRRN", "T2 sequence (P04234 22-171, chain 3 of 4)": "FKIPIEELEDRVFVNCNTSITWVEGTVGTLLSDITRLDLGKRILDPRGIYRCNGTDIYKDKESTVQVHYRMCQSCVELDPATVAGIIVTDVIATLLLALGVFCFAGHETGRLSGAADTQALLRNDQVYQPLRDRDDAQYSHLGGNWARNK", "T2 sequence (P20963 22-164, chain 4 of 4)": "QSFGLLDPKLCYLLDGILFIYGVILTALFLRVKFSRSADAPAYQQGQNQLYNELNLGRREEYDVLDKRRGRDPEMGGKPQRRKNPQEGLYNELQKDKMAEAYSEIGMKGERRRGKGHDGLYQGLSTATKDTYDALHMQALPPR", "test": "flow cytometry on CD3+ Jurkat NFAT Lucia cells, secondary antibody to the IgG1 Fc"}, "[2]": {"molecular_target": "T1, human ROR1 (Receptor Tyrosine …)", "test": "flow cytometry on ROR1+ MDA-MB-231 cells, secondary antibody to the IgG1 Fc; table row 'Binding EC50 (nM)', the graph's axis reads 'Concentration (pM)'"}},
  "data": [
    {"binder": "FUSE608 (humanized CD3 clone 1F3.3 x humanized clone 5A1-FA9-HK1) (bispecific antibody) heavy: EVQLVESGGGLVQPGGSLRLSCAASGFTFSTYAMNWVRQAPGKGLEWVARIRSKYNNYATYYADSVKDRFTISRDDSKNTLYLQMNSLRAEDTAVYYCARHGNFGNSYVSWFAYWGQGTMVTVSSASTKGPSVFPLAPSSKSTSGGTAALGCLVKDYFPEPVTVSWNSGALTSGVHTFPAVLQSSGLYSLSSVVTVPSSSLGTQTYICNVNHKPSNTKVDKKVEPKSCDKTHTCPPCPAPEAAGGPSVFLFPPKPKDTLMISRTPEVTCVVVDVSHEDPEVKFNWYVDGVEVHNAKTKPREEQYNSTYRVVSVLTVLHQDWLNGKEYKCKVSNKALPAPIEKTISKAKGQPREPQVYTLPPSREEMTKNQVSLSCAVKGFYPSDIAVEWESNGQPENNYKTTPPVLDSDGSFFLVSKLTVDKSRWQQGNVFSCSVMHEALHNRFTQKSLSLSPGK VHH-Fc: EVQLLESGGGLVQPGGSLRLSCTASGYTNRLKCMGWFRQAPGKEREEIASISTGTGNTYYADSVKGRFTISRDKSRNTLYLQMNTLRAEDTAVYYCAADVRPHGTTCHYNSRGQGTQVTVSSEPKSSDKTHTCPPCPAPEAAGGPSVFLFPPKPKDTLMISRTPEVTCVVVDVSHEDPEVKFNWYVDGVEVHNAKTKPREEQYNSTYRVVSVLTVLHQDWLNGKEYKCKVSNKALPAPIEKTISKAKGQPREPQVYTLPPSREEMTKNQVSLWCLVKGFYPSDIAVEWESNGQPENNYKTTPPVLDSDGSFFLYSKLTVDKSRWQQGNVFSCSVMHEALHNHYTQKSLSLSPGK light: QAVVTQEPSLTVSPGGTVTLTCRSSTGAVTTSNYANWVQQKPGQAPRGLIGGTNKRAPGTPARFSGSLLGGKAALTLSGVQPEDEAEYYCALWYSNLWVFGGGTKLTVLGQPKAAPSVTLFPPSSEELQANKATLVCLISDFYPGAVTVAWKADSSPVKAGVETTTPSKQSNNKYAASSYLSLTPEQWKSHRSYSCQVTHEGSTVEKTVAPTECSGGGGSGGGGSGGGGSGGGGSEVQLLESGGGLVQPGGSLRLSCTASGYTNRLKCMGWFRQAPGKEREEIASISTGTGNTYYADSVKGRFTISRDKSRNTLYLQMNTLRAEDTAVYYCAADVRPHGTTCHYNSRGQGTQVTVSS", "values": [
      {"measurement": "fold decrease in T cell mediated IFNγ release with ROR1+ MDA-MB-231, potency against FUSE399", "setting": "[1]", "value": "~25", "unit": "fold"},
      {"measurement": "EC50", "setting": "human CD3 on T cells", "value": 8.18, "unit": "nM"},
      {"measurement": "EC50", "setting": "[2]", "value": 2.9, "unit": "nM"}
    ]}
  ]
}
